Patent US20230357348A1 (AstraZeneca / MedImmune, published 2023)
Starred links: 1 amine or outer side, 2 acyl side, 3 side chain; linkers in the order of their positions; H or OH if unused. Non-standard residues stand in square brackets, D forms with d. Groups on a side chain read outwards from the residue. Primed or numbered codes have the meaning given here. No end group written: not given here. *: point of attachment. C18 diacid = O=C(O)CCCCCCCCCCCCCCCCC(=O)*; γGlu = O=C(O)[C@H](CCC(=O)[*:2])N[*:1]; αMeF = C[C@](N)(Cc1ccccc1)C(=O)O; PEG4′ = polyethylene glycol; AEEA = NCCOCCOCC(=O)O; Aib = CC(C)(N)C(=O)O

B1: Peptide 3 (peptide)
peptide: HSQGS[αMeF]TSDVSK[αMeF]LDSK([γGlu-C18 diacid])AAQDFVQWIANT-NH2
modifications: N-terminus assumed
SMILES: CC[C@H](C)[C@H](NC(=O)[C@H](Cc1c[nH]c2ccccc12)NC(=O)[C@H](CCC(N)=O)NC(=O)[C@@H](NC(=O)[C@H](Cc1ccccc1)NC(=O)[C@H](CC(=O)O)NC(=O)[C@H](CCC(N)=O)NC(=O)[C@H](C)NC(=O)[C@H](C)NC(=O)[C@H](CCCCNC(=O)CC[C@H](NC(=O)CCCCCCCCCCCCCCCCC(=O)O)C(=O)O)NC(=O)[C@H](CO)NC(=O)[C@H](CC(=O)O)NC(=O)[C@H](CC(C)C)NC(=O)[C@](C)(Cc1ccccc1)NC(=O)[C@H](CCCCN)NC(=O)[C@H](CO)NC(=O)[C@@H](NC(=O)[C@H](CC(=O)O)NC(=O)[C@H](CO)NC(=O)[C@@H](NC(=O)[C@](C)(Cc1ccccc1)NC(=O)[C@H](CO)NC(=O)CNC(=O)[C@H](CCC(N)=O)NC(=O)[C@H](CO)NC(=O)[C@@H](N)Cc1c[nH]cn1)[C@@H](C)O)C(C)C)C(C)C)C(=O)N[C@@H](C)C(=O)N[C@@H](CC(N)=O)C(=O)N[C@H](C(N)=O)[C@@H](C)O
B2: Peptide 29 (peptide)
peptide: H[Aib]QGTFTSDVSK[αMeF]LDSK([AEEA-AEEA-γGlu-C18 diacid])RA[Aib]DFVQWLL[Aib]T-OH
modifications: N-terminus assumed
SMILES: CC(C)C[C@H](NC(=O)[C@H](Cc1c[nH]c2ccccc12)NC(=O)[C@H](CCC(N)=O)NC(=O)[C@@H](NC(=O)[C@H](Cc1ccccc1)NC(=O)[C@H](CC(=O)O)NC(=O)C(C)(C)NC(=O)[C@H](C)NC(=O)[C@H](CCCNC(=N)N)NC(=O)[C@H](CCCCNC(=O)COCCOCCNC(=O)COCCOCCNC(=O)CC[C@H](NC(=O)CCCCCCCCCCCCCCCCC(=O)O)C(=O)O)NC(=O)[C@H](CO)NC(=O)[C@H](CC(=O)O)NC(=O)[C@H](CC(C)C)NC(=O)[C@](C)(Cc1ccccc1)NC(=O)[C@H](CCCCN)NC(=O)[C@H](CO)NC(=O)[C@@H](NC(=O)[C@H](CC(=O)O)NC(=O)[C@H](CO)NC(=O)[C@@H](NC(=O)[C@H](Cc1ccccc1)NC(=O)[C@@H](NC(=O)CNC(=O)[C@H](CCC(N)=O)NC(=O)C(C)(C)NC(=O)[C@@H](N)Cc1c[nH]cn1)[C@@H](C)O)[C@@H](C)O)C(C)C)C(C)C)C(=O)N[C@@H](CC(C)C)C(=O)NC(C)(C)C(=O)N[C@H](C(=O)O)[C@@H](C)O
B3: Peptide 42 (peptide)
peptide: H[Aib]QGTFTSDVSK[αMeF]LDSK([AEEA-AEEA-γGlu-C18 diacid])RAQDFVQ[Aib]LVAT-OH
modifications: N-terminus assumed
SMILES: CC(C)C[C@H](NC(=O)C(C)(C)NC(=O)[C@H](CCC(N)=O)NC(=O)[C@@H](NC(=O)[C@H](Cc1ccccc1)NC(=O)[C@H](CC(=O)O)NC(=O)[C@H](CCC(N)=O)NC(=O)[C@H](C)NC(=O)[C@H](CCCNC(=N)N)NC(=O)[C@H](CCCCNC(=O)COCCOCCNC(=O)COCCOCCNC(=O)CC[C@H](NC(=O)CCCCCCCCCCCCCCCCC(=O)O)C(=O)O)NC(=O)[C@H](CO)NC(=O)[C@H](CC(=O)O)NC(=O)[C@H](CC(C)C)NC(=O)[C@](C)(Cc1ccccc1)NC(=O)[C@H](CCCCN)NC(=O)[C@H](CO)NC(=O)[C@@H](NC(=O)[C@H](CC(=O)O)NC(=O)[C@H](CO)NC(=O)[C@@H](NC(=O)[C@H](Cc1ccccc1)NC(=O)[C@@H](NC(=O)CNC(=O)[C@H](CCC(N)=O)NC(=O)C(C)(C)NC(=O)[C@@H](N)Cc1c[nH]cn1)[C@@H](C)O)[C@@H](C)O)C(C)C)C(C)C)C(=O)N[C@H](C(=O)N[C@@H](C)C(=O)N[C@H](C(=O)O)[C@@H](C)O)C(C)C
B4: Peptide 31 (peptide)
peptide: H[Aib]QGTFTSDVSK[αMeF]LDSK([AEEA-AEEA-γGlu-C18 diacid])RAQDFVRWLLE[Aib]G-OH
modifications: N-terminus assumed
SMILES: CC(C)C[C@H](NC(=O)[C@H](Cc1c[nH]c2ccccc12)NC(=O)[C@H](CCCNC(=N)N)NC(=O)[C@@H](NC(=O)[C@H](Cc1ccccc1)NC(=O)[C@H](CC(=O)O)NC(=O)[C@H](CCC(N)=O)NC(=O)[C@H](C)NC(=O)[C@H](CCCNC(=N)N)NC(=O)[C@H](CCCCNC(=O)COCCOCCNC(=O)COCCOCCNC(=O)CC[C@H](NC(=O)CCCCCCCCCCCCCCCCC(=O)O)C(=O)O)NC(=O)[C@H](CO)NC(=O)[C@H](CC(=O)O)NC(=O)[C@H](CC(C)C)NC(=O)[C@](C)(Cc1ccccc1)NC(=O)[C@H](CCCCN)NC(=O)[C@H](CO)NC(=O)[C@@H](NC(=O)[C@H](CC(=O)O)NC(=O)[C@H](CO)NC(=O)[C@@H](NC(=O)[C@H](Cc1ccccc1)NC(=O)[C@@H](NC(=O)CNC(=O)[C@H](CCC(N)=O)NC(=O)C(C)(C)NC(=O)[C@@H](N)Cc1c[nH]cn1)[C@@H](C)O)[C@@H](C)O)C(C)C)C(C)C)C(=O)N[C@@H](CC(C)C)C(=O)N[C@@H](CCC(=O)O)C(=O)NC(C)(C)C(=O)NCC(=O)O
B5: Peptide 40 (peptide)
peptide: H[Aib]QGTFTSDVSK[αMeF]LDSK([AEEA-AEEA-γGlu-C18 diacid])RAQDFVQWLL[Aib]T-OH
modifications: N-terminus assumed
SMILES: CC(C)C[C@H](NC(=O)[C@H](Cc1c[nH]c2ccccc12)NC(=O)[C@H](CCC(N)=O)NC(=O)[C@@H](NC(=O)[C@H](Cc1ccccc1)NC(=O)[C@H](CC(=O)O)NC(=O)[C@H](CCC(N)=O)NC(=O)[C@H](C)NC(=O)[C@H](CCCNC(=N)N)NC(=O)[C@H](CCCCNC(=O)COCCOCCNC(=O)COCCOCCNC(=O)CC[C@H](NC(=O)CCCCCCCCCCCCCCCCC(=O)O)C(=O)O)NC(=O)[C@H](CO)NC(=O)[C@H](CC(=O)O)NC(=O)[C@H](CC(C)C)NC(=O)[C@](C)(Cc1ccccc1)NC(=O)[C@H](CCCCN)NC(=O)[C@H](CO)NC(=O)[C@@H](NC(=O)[C@H](CC(=O)O)NC(=O)[C@H](CO)NC(=O)[C@@H](NC(=O)[C@H](Cc1ccccc1)NC(=O)[C@@H](NC(=O)CNC(=O)[C@H](CCC(N)=O)NC(=O)C(C)(C)NC(=O)[C@@H](N)Cc1c[nH]cn1)[C@@H](C)O)[C@@H](C)O)C(C)C)C(C)C)C(=O)N[C@@H](CC(C)C)C(=O)NC(C)(C)C(=O)N[C@H](C(=O)O)[C@@H](C)O

The binders below were run against human GLP-1 receptor (hGLP-1R) (human, UniProt P43220 24-463) (assay: cell-based or functional assay).

First: B1
Second: B2
The “hGLP-1R EC50 (pM)” value of the first is lower: 69 pM for the first, 107 pM for the second.

Going from H[Aib]QGTFTSDYSK[αMeF]LDSK([AEEA-AEEA-γGlu-C18 diacid])RAQDFVQWLV[PEG4′]-NH2 [Peptide 41] to B3, the “hGLP-1R EC50 (pM)” value rises from 663 pM to 665 pM.

Compared with B4, B5 is lower in “hGLP-1R EC50 (pM)” value: 41.3 pM for the first, 29.9 pM for the second.

Each binder was assayed against human glucagon receptor (hGCGR) (human, UniProt P47871 26-477) (assay: cell-based or functional assay).
human glucagon receptor (hGCGR), sequence (P47871 26-477): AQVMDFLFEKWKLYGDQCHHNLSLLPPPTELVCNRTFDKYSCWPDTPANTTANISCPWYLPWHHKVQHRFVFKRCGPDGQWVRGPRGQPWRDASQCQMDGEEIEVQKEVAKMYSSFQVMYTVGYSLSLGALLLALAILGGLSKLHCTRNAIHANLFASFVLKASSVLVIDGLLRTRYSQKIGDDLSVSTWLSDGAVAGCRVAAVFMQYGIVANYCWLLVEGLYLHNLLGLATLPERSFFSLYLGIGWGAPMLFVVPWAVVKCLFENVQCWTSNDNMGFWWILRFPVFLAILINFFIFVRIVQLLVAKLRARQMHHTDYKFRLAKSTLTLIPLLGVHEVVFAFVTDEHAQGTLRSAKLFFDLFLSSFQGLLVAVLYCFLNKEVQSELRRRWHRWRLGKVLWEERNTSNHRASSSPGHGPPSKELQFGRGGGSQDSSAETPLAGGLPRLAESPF

Going from B1 to B2, the “hGluc-R EC50 (pM)” value rises from 149 pM to 629 pM.

Going from H[Aib]QGTFTSDYSK[αMeF]LDSK([AEEA-AEEA-γGlu-C18 diacid])RAQDFVQWLV[PEG4′]-NH2 [Peptide 41] to B3, the “hGluc-R EC50 (pM)” value rises from 5740 pM to 8190 pM.

Compared with B4, B5 is higher in “hGluc-R EC50 (pM)” value: 56.8 pM for the first, 123 pM for the second.
